Source: publication PMC3355152, “Crystal Structures of Lsm3, Lsm4 and Lsm5/6/7 from Schizosaccharomyces pombe” (PLoS ONE, 2012)

Key:
[1] = target: the molecule itself; experiment: AUC; sedimentation velocity, 42000 r.p.m., 20°C, 20 mM Hepes pH 7.5, 100 mM NaCl; 0.75, 1.0 and 1.5 mg/ml; c(S) and c(M) distributions (SEDFIT)
[2] = target: the molecule itself; experiment: crystal structure; SeMet crystals grown from the SeMet-SpLsm2/3 sample; hanging drop, 15°C, 0.1 M Mes pH 6.5, 0.2 M MgCl2, 40% MPD; 2.7 Å, SAD; only SpLsm3 in the crystal
[3] = target: the molecule itself; experiment: AUC; sedimentation equilibrium, 20°C, 20 mM Hepes pH 7.5, 500 mM NaCl; 15,000, 18,000, 25,000 rpm; 0.3-1.5 mg/ml; fitted to a monomer-trimer model (HETEROANALYSIS); monomer to trimer

Protein	stoichiometry N [1]	other results
SpLsm3 (Lsm3 from S. pombe, expressed alone) (natural protein, Lsm3 (Sm-like protein 3), S. pombe, full length; modified pETDuet-1 MCS1 with N-terminal His6-tag followed by a PreScission site; printed monomer mass 11087 Da; source: E. coli B834 (DE3), purified (TALON Co2+, PreScission cleavage, second TALON, Superdex-200); not shown: His6, N-terminal, cleaved) not shown	7	
SpLsm3 from the co-expressed SpLsm2/3 sample (natural protein, SeMet-substituted in the crystal, Lsm3 (Sm-like protein 3), S. pombe, full length; inserted into MCS2 of pETDuet-1, no tag told; The SpLsm3 crystals grew from the SeMet-SpLsm2/3 sample; Residues 1-8 and 56-69 are disordered in the model; also called SeMet-SpLsm3; source: E. coli B834 (DE3), co-expressed with His6-SpLsm2 (pETDuet-1 MCS2), purified (TALON Co2+, Superdex-200)) not shown		stoichiometry N [2]: 7
SpLsm5/6/7 sub-complex (trimeric complex of SpLsm5, SpLsm6 and SpLsm7) (complex, SeMet-substituted in the crystal | SeMet-substituted in the crystal | SeMet-substituted in the crystal, Lsm5 (Sm-like protein 5), S. pombe, full length; Lsm6 (Sm-like protein 6), S. pombe, full length; Lsm7 (Sm-like protein 7), S. pombe, full length; One copy of each subunit (printed mass of this unit 31240 Da); two such trimers form the hexameric ring; source: E. coli B834 (DE3), co-expressed (pETDuet-1 and pACYCDuet-1), purified (TALON Co2+, Superdex-200); copies: 1 + 1 + 1) chain 1: not shown chain 2: MDSSPNEFLNKVIGKKVLIRLSSGVDYKGILSCLDGYMNLALERTEEYVNGKKTNVYGDAFIRGNNVLYVSALDD chain 3: MSSLQKRPGPGNSSQPTERPRKESILDLSRYQDQRIQATFTGGRQITGILKGFDQLMNLVLDDVEEQLRNPEDGKLTGAIRKLGLVVVRGTTLVLIAPMDGSEEIPNPFVQAE	2	
ScLsm3 (Lsm3 from S. cerevisiae) (natural protein, Lsm3 (Sm-like protein 3), Saccharomyces cerevisiae; the Lsm3 gene amplified from genomic DNA; printed monomer mass 10450 Da; source: E. coli B834 (DE3), purified (TALON Co2+, PreScission cleavage, second TALON, Superdex-200); not shown: His6, N-terminal, cleaved) METPLDLLKLNLDERVYIKLRGARTLVGTLQAFDSHCNIVLSDAVETIYQLNNEELSESERRCEMVFIRGDTVTLISTPSEDDDGAVEI	8	
SpLsm4N (C-terminal truncated Lsm4 from S. pombe, residues 1-91) (domain or fragment, UniProt O14352 1-91, looked up, SeMet-substituted in the crystal, Lsm4 (Sm-like protein 4), S. pombe, residues 1-91; printed monomer mass 12204 Da; No cleavage of the His6 tag is told for this construct; The model covers residues 12-71; also called N-terminal region of Lsm4; source: E. coli B834 (DE3), purified (TALON Co2+, Superdex-75)) MLPLTLLNATQGRPILVELKNGETFNGHLENCDNYMNLTLREVIRTMPDGDKFFRLPECYIRGNNIKYLRIQDEVLSQVAKQQAQQRENRG		stoichiometry N [3]: 3
